Legend:
[1] = target: HLA-A*01:01; assay: IEDB peptide-MHC binding, purified MHC/direct/fluorescence; filed as Kd, often an IC50 or EC50 that approximates it; ≥ and ≤ were set here for values at or beyond the usual limits of such assays
[2] = target: HLA-A*02:01; assay: as above
[3] = target: HLA-A*03:01; assay: as above
[4] = target: HLA-A*11:01; assay: as above
[5] = target: HLA-A*24:02; assay: as above
[6] = target: HLA-A*26:01; assay: as above; details: source organism: Influenza A virus(A/swine/Shandong/fNY/2003(H9N2))
[7] = target: HLA-A*31:01; assay: as above
[8] = target: HLA-B*07:02; assay: as above
[9] = target: HLA-B*08:01; assay: as above
[10] = target: HLA-B*08:02; assay: as above; details: source organism: Influenza A virus(A/swine/Shandong/fNY/2003(H9N2))
[11] = target: HLA-B*15:01; assay: as above
[12] = target: HLA-B*27:05; assay: as above
[13] = target: HLA-B*40:01; assay: as above
[14] = target: HLA-B*44:02; assay: as above
[15] = target: HLA-B*46:01; assay: as above
[16] = target: HLA-B*58:01; assay: as above
[17] = target: HLA-A*69:01; assay: as above; details: source organism: Giardia lamblia ATCC 50803
[18] = target: HLA-B*15:09; assay: as above; details: source organism: Giardia lamblia ATCC 50803
[19] = target: HLA-B*08:01; assay: IEDB peptide-MHC binding, purified MHC/competitive/fluorescence; filed as Kd, often an IC50 or EC50 that approximates it; ≥ and ≤ were set here for values at or beyond the usual limits of such assays; details: source organism: Yersinia pestis Antiqua
[20] = target: HLA-B*27:05; assay: as above
[21] = target: HLA-A*23:01; assay: IEDB peptide-MHC binding, purified MHC/direct/fluorescence; filed as Kd, often an IC50 or EC50 that approximates it; ≥ and ≤ were set here for values at or beyond the usual limits of such assays
[22] = target: HLA-A*24:03; assay: as above; details: source organism: Francisella tularensis subsp. holarctica LVS
[23] = source organism: Influenza A virus (A/Viet Nam/HN/2004(H5N1))
[24] = source organism: Giardia lamblia ATCC 50803
[25] = source organism: Francisella tularensis subsp. holarctica LVS
[26] = source organism: dengue virus type 2

ERNEQGQTL
Kd [1, 23]: ≥ 20 µM
Kd [2, 23]: ≥ 20 µM
Kd [3, 23]: ≥ 20 µM
Kd [4, 23]: ≥ 20 µM
Kd [5, 23]: ≥ 20 µM
Kd [6]: ≥ 20 µM
Kd [7, 23]: ≥ 20 µM
Kd [8, 23]: ≥ 20 µM
Kd [9, 23]: ≥ 20 µM
Kd [10]: ≥ 20 µM
Kd [11, 23]: ≥ 20 µM
Kd [12, 23]: ≥ 20 µM
Kd [13, 23]: ≥ 20 µM
Kd [14, 23]: ≥ 20 µM
Kd [15, 23]: ≥ 20 µM
Kd [16, 23]: ≥ 20 µM

LERIKANIF
Kd [1, 24]: ≥ 20 µM
Kd [2, 24]: ≥ 20 µM
Kd [3, 24]: ≥ 20 µM
Kd [4, 24]: ≥ 20 µM
Kd [5, 24]: ≥ 20 µM
Kd [7, 24]: ≥ 20 µM
Kd [17]: ≥ 20 µM
Kd [8, 24]: ≥ 20 µM
Kd [9, 24]: 16.6 µM
Kd [11, 24]: 0.918 µM
Kd [18]: ≥ 20 µM
Kd [12, 24]: ≥ 20 µM
Kd [13, 24]: 2.43 µM
Kd [14, 24]: ≥ 20 µM
Kd [15, 24]: ≥ 20 µM
Kd [16, 24]: ≥ 20 µM

LRQKRKAGV
Kd [19]: ≥ 20 µM
Kd ([20]; source organism: Yersinia pestis Antiqua): 0.0805 µM

RQWRWPLGE
Kd ([20]; source organism: Mycobacterium tuberculosis C): 0.928 µM

VYYIVVRDF
Kd [21, 25]: 0.017 µM
Kd [5, 25]: 0.0061 µM
Kd [22]: 0.0275 µM

WYGMEIRPL
Kd [21, 26]: 1.8 µM
Kd [5, 26]: 0.455 µM
